Experimental data as given in the supplement of paper PMC7877785.
± gives the uncertainty stated by the source.

Experiment: self-splicing fitness, log relative to wild type (ln ratio); higher = more splicing; Tetrahymena group I intron in knt gene, E. coli kanamycin selection, DiMSum; sequences stand for … in CUCUCU…GGAGGGAAAAGUUAUCAGGCAUGCACCUGGUAGCUAGUCUUUAAACCAAUAGAUUGCAUCGGUUUAAAAGGCAAGACCGUCAAAUUGCGGGAAAGGGGUCAACAGCCGUUCAGUACCAAGUCUCAGGGGAAACUUUGAGAUGGCCUUGCAAAGGGUAUGGUAAUAAGCUGACGGACAUGGUCCUAACCACGCAGCCAAGUCCUAAGUCAACAGAUCUUCUGUUGAUAUGGAUGCAGUUCACAGACUAAAUGUCGGUCGGGGAAGAUGUAUUCUUCUCAUAAGAUAUAGUCGGACCUCUCCUUAAUGGGAGCUAGCGGAUGAAGUGAUGCAACACUGGAGCCGCUGGGAACUAAUUUGUAUGCGAAAGUAUAUUGAUUAGUUUUGGAGUACUCGUGGUCG
Procedure, shortened: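 Six replicate transformations of E. coli BL21(DE3) with a pET-22b(+) library were grown overnight at 37°C or 30°C. The library randomised all eight P1ex-region intron nucleotides, the intron lying in the knt kanamycin-resistance gene, and plates were LB agar with or without 25 μg/mL kanamycin plus 100 μg/mL carbenicillin, 50 μM IPTG and 0.2% rhamnose. Pooled colonies were amplicon-sequenced on an Illumina HiSeq 2500, and fitness is the DiMSum error-weighted combination of wild-type-normalised replicate fold changes, kanamycin versus none.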

Sequence: CAAGAGCAAUAUUACGCAUU
- self-splicing fitness (ln) (30 °C): -3.39 ± 0.27
- self-splicing fitness (ln) (37 °C): -2.51 ± 0.21

Sequence: UCUUAGCAAUAUUACGAUAC
- self-splicing fitness (ln) (37 °C): -3.06 ± 0.34

Sequence: CUCCAGCAAUAUUACGGUGU
- self-splicing fitness (ln) (30 °C): -4.11 ± 0.15
- self-splicing fitness (ln) (37 °C): -2.28 ± 0.13

Sequence: CUCGAGCAAUAUUACGGAGG
- self-splicing fitness (ln) (30 °C): -2.97 ± 0.1
- self-splicing fitness (ln) (37 °C): -1.46 ± 0.097

Sequence: UCCCAGCAAUAUUACGCCGU
- self-splicing fitness (ln) (30 °C): -3.11 ± 0.22
- self-splicing fitness (ln) (37 °C): -2.27 ± 0.21

Sequence: CAGUAGCAAUAUUACGUCGU
- self-splicing fitness (ln) (30 °C): -2.6 ± 0.17
- self-splicing fitness (ln) (37 °C): -2.44 ± 0.17

Sequence: CCACAGCAAUAUUACGACAU
- self-splicing fitness (ln) (30 °C): -3.702 ± 0.019
- self-splicing fitness (ln) (37 °C): -2.84 ± 0.037

Sequence: UCUCAGCAAUAUUACGCUAC
- self-splicing fitness (ln) (30 °C): -3.11 ± 0.35
- self-splicing fitness (ln) (37 °C): -2.14 ± 0.41

Sequence: UUUUAGCAAUAUUACGGCGC
- self-splicing fitness (ln) (30 °C): -1.12 ± 0.29
- self-splicing fitness (ln) (37 °C): -0.567 ± 0.34

Sequence: GUUAAGCAAUAUUACGGAUU
- self-splicing fitness (ln) (30 °C): -2.21 ± 0.12
- self-splicing fitness (ln) (37 °C): -0.713 ± 0.14

Sequence: UGGGAGCAAUAUUACGGGGG
- self-splicing fitness (ln) (30 °C): -2.97 ± 0.25
- self-splicing fitness (ln) (37 °C): -2.17 ± 0.35

Sequence: AAGAAGCAAUAUUACGGUAG
- self-splicing fitness (ln) (30 °C): -3.76 ± 0.19
- self-splicing fitness (ln) (37 °C): -1.83 ± 0.17

Sequence: CAUCAGCAAUAUUACGAUGG
- self-splicing fitness (ln) (30 °C): -0.479 ± 0.057
- self-splicing fitness (ln) (37 °C): -0.173 ± 0.074

Sequence: UCGAAGCAAUAUUACGGUGC
- self-splicing fitness (ln) (30 °C): -2.62 ± 0.25

Sequence: CCUGAGCAAUAUUACGCGCG
- self-splicing fitness (ln) (30 °C): -3.05 ± 0.21
- self-splicing fitness (ln) (37 °C): -3.29 ± 0.26

Sequence: GCGCAGCAAUAUUACGCGCC
- self-splicing fitness (ln) (30 °C): -3.43 ± 0.26
- self-splicing fitness (ln) (37 °C): -2.41 ± 0.39

Sequence: AGGUAGCAAUAUUACGAAGG
- self-splicing fitness (ln) (30 °C): -3.908 ± 0.034
- self-splicing fitness (ln) (37 °C): -2.86 ± 0.046

Sequence: GGUCAGCAAUAUUACGGCGC
- self-splicing fitness (ln) (30 °C): -0.127 ± 0.12
- self-splicing fitness (ln) (37 °C): -0.0173 ± 0.14

Sequence: ACCAAGCAAUAUUACGGCAG
- self-splicing fitness (ln) (30 °C): -3.19 ± 0.16
- self-splicing fitness (ln) (37 °C): -1.9 ± 0.17

Sequence: CCAAAGCAAUAUUACGCUUU
- self-splicing fitness (ln) (30 °C): -3.57 ± 0.16
- self-splicing fitness (ln) (37 °C): -2.73 ± 0.21

Sequence: CGCAAGCAAUAUUACGCUCG
- self-splicing fitness (ln) (30 °C): -3.87 ± 0.32
- self-splicing fitness (ln) (37 °C): -2.95 ± 0.29

Sequence: UACUAGCAAUAUUACGUAUC
- self-splicing fitness (ln) (30 °C): -2.06 ± 0.2
- self-splicing fitness (ln) (37 °C): -2.9 ± 0.4

Sequence: CGUUAGCAAUAUUACGUCGU
- self-splicing fitness (ln) (37 °C): -1.81 ± 0.33

Sequence: CGUCAGCAAUAUUACGGACA
- self-splicing fitness (ln) (30 °C): -0.0785 ± 0.094
- self-splicing fitness (ln) (37 °C): 0.394 ± 0.15

Sequence: CCCCAGCAAUAUUACGGCGC
- self-splicing fitness (ln) (30 °C): -3.41 ± 0.17
- self-splicing fitness (ln) (37 °C): -2.98 ± 0.24

Sequence: CCCAAGCAAUAUUACGAUUU
- self-splicing fitness (ln) (30 °C): -2.62 ± 0.13
- self-splicing fitness (ln) (37 °C): -2.21 ± 0.17

Sequence: GCCUAGCAAUAUUACGCCCU
- self-splicing fitness (ln) (30 °C): -0.974 ± 0.097
- self-splicing fitness (ln) (37 °C): 0.335 ± 0.13

Sequence: AUCAAGCAAUAUUACGAUGC
- self-splicing fitness (ln) (30 °C): -2.01 ± 0.19
- self-splicing fitness (ln) (37 °C): -1.1 ± 0.23

Sequence: UUAAAGCAAUAUUACGCACG
- self-splicing fitness (ln) (30 °C): -0.443 ± 0.092
- self-splicing fitness (ln) (37 °C): 0.47 ± 0.14

Sequence: AGAUAGCAAUAUUACGACAC
- self-splicing fitness (ln) (30 °C): -1.11 ± 0.12
- self-splicing fitness (ln) (37 °C): -0.486 ± 0.15

Sequence: AUGCAGCAAUAUUACGUUUA
- self-splicing fitness (ln) (30 °C): -2.04 ± 0.095
- self-splicing fitness (ln) (37 °C): -1.21 ± 0.089

Sequence: GGCCAGCAAUAUUACGUAUG
- self-splicing fitness (ln) (30 °C): -4.17 ± 0.31
- self-splicing fitness (ln) (37 °C): -2.85 ± 0.26

Sequence: CACUAGCAAUAUUACGCACU
- self-splicing fitness (ln) (30 °C): -1.54 ± 0.11
- self-splicing fitness (ln) (37 °C): -0.108 ± 0.11

Sequence: UCCGAGCAAUAUUACGCUUU
- self-splicing fitness (ln) (30 °C): -2.64 ± 0.26
- self-splicing fitness (ln) (37 °C): -3.01 ± 0.47

Sequence: GUGCAGCAAUAUUACGACGC
- self-splicing fitness (ln) (30 °C): -0.518 ± 0.099
- self-splicing fitness (ln) (37 °C): 0.23 ± 0.13

Sequence: GGGAAGCAAUAUUACGUACA
- self-splicing fitness (ln) (30 °C): -1.02 ± 0.14
- self-splicing fitness (ln) (37 °C): -0.334 ± 0.24

Sequence: ACAAAGCAAUAUUACGAAAU
- self-splicing fitness (ln) (30 °C): -3.02 ± 0.13
- self-splicing fitness (ln) (37 °C): -1.42 ± 0.12

Sequence: CCUUAGCAAUAUUACGCGAC
- self-splicing fitness (ln) (30 °C): -3.16 ± 0.26
- self-splicing fitness (ln) (37 °C): -2.12 ± 0.28

Sequence: ACUAAGCAAUAUUACGCAAU
- self-splicing fitness (ln) (30 °C): -2.04 ± 0.076
- self-splicing fitness (ln) (37 °C): -1.65 ± 0.086

Sequence: CGCGAGCAAUAUUACGGUUA
- self-splicing fitness (ln) (30 °C): -2.88 ± 0.26
- self-splicing fitness (ln) (37 °C): -0.646 ± 0.18

Sequence: UCAUAGCAAUAUUACGAAAU
- self-splicing fitness (ln) (30 °C): -2.86 ± 0.23
- self-splicing fitness (ln) (37 °C): -2.58 ± 0.28

Sequence: AUUCAGCAAUAUUACGUAGG
- self-splicing fitness (ln) (30 °C): -1.64 ± 0.13
- self-splicing fitness (ln) (37 °C): -0.941 ± 0.17

Sequence: AGUGAGCAAUAUUACGGUGU
- self-splicing fitness (ln) (30 °C): -4.01 ± 0.29
- self-splicing fitness (ln) (37 °C): -3.73 ± 0.34

Sequence: AUGUAGCAAUAUUACGGACA
- self-splicing fitness (ln) (30 °C): -0.611 ± 0.083
- self-splicing fitness (ln) (37 °C): 0.202 ± 0.12

Sequence: CACAAGCAAUAUUACGUAAU
- self-splicing fitness (ln) (30 °C): -3.79 ± 0.14
- self-splicing fitness (ln) (37 °C): -1.65 ± 0.1

Sequence: CUGCAGCAAUAUUACGUGCC
- self-splicing fitness (ln) (30 °C): -2.23 ± 0.21
- self-splicing fitness (ln) (37 °C): -2.26 ± 0.26

Sequence: AUCUAGCAAUAUUACGUAUU
- self-splicing fitness (ln) (30 °C): -2.56 ± 0.15
- self-splicing fitness (ln) (37 °C): -2.08 ± 0.19

Sequence: AUAGAGCAAUAUUACGUCUU
- self-splicing fitness (ln) (30 °C): 0.446 ± 0.074
- self-splicing fitness (ln) (37 °C): 0.419 ± 0.087

Sequence: GUCGAGCAAUAUUACGUAGU
- self-splicing fitness (ln) (30 °C): -2.34 ± 0.12
- self-splicing fitness (ln) (37 °C): -1.47 ± 0.11

Sequence: GGCAAGCAAUAUUACGGCUC
- self-splicing fitness (ln) (30 °C): -2.55 ± 0.25
- self-splicing fitness (ln) (37 °C): -0.854 ± 0.21

Sequence: CAGUAGCAAUAUUACGAAGA
- self-splicing fitness (ln) (37 °C): -2.1 ± 0.41

Sequence: CACCAGCAAUAUUACGUAUC
- self-splicing fitness (ln) (30 °C): -3.55 ± 0.14
- self-splicing fitness (ln) (37 °C): -2.99 ± 0.19

Sequence: GGAAAGCAAUAUUACGACUU
- self-splicing fitness (ln) (30 °C): -0.349 ± 0.1
- self-splicing fitness (ln) (37 °C): -0.0565 ± 0.11

Sequence: AGUAAGCAAUAUUACGUAAC
- self-splicing fitness (ln) (30 °C): -2.48 ± 0.23

Sequence: UCAGAGCAAUAUUACGUGUA
- self-splicing fitness (ln) (30 °C): -2.57 ± 0.23
- self-splicing fitness (ln) (37 °C): -2.18 ± 0.19

Sequence: UCUCAGCAAUAUUACGAAUA
- self-splicing fitness (ln) (30 °C): -2.57 ± 0.21
- self-splicing fitness (ln) (37 °C): -0.0366 ± 0.13

Sequence: CCUAAGCAAUAUUACGGUAU
- self-splicing fitness (ln) (30 °C): -3.72 ± 0.23
- self-splicing fitness (ln) (37 °C): -1.85 ± 0.24

Sequence: UCACAGCAAUAUUACGGUCC
- self-splicing fitness (ln) (30 °C): -2.85 ± 0.21
- self-splicing fitness (ln) (37 °C): -2.2 ± 0.2

Sequence: GAAAAGCAAUAUUACGAUCG
- self-splicing fitness (ln) (30 °C): -0.618 ± 0.06
- self-splicing fitness (ln) (37 °C): 0.218 ± 0.08

Sequence: CCCCAGCAAUAUUACGACCG
- self-splicing fitness (ln) (30 °C): -4.12 ± 0.26
- self-splicing fitness (ln) (37 °C): -1.76 ± 0.34

Sequence: GUCUAGCAAUAUUACGCCCG
- self-splicing fitness (ln) (30 °C): -0.678 ± 0.27
- self-splicing fitness (ln) (37 °C): -0.293 ± 0.34
